One may read the EC50 (read off the curve) as the concentration that produces a half-maximal response. What is called Kd is the concentration at which binding is half-saturated. Usually koff stands for a measure of how fast the partners let go of each other. The term kon denotes the second-order rate constant of association.

One assay has as its target T1, cyno FGFR2b-Fc (Cynomolgus monkey).
T1 construct: also called recombinant cyno FGFR2b-Fc; cynomolgus FGFR2b
Nature of the assay: ELISA, plate coated with cyno FGFR2b-Fc, anti-human IgG HRP. As for the experimental part: (§1) The cross-species binding of Ab 21c to recombinant cyno, rat/mouse, and human FGFR2b-Fc fusion proteins was conducted with ELISA. In brief, 96-well ELISA plate were coated with about 100 μl/well 0.1 μg/ml recombinant human FGFR2b-Fc, recombinant rat/mouse FGFR2b-Fc, or recombinant cyno FGFR2b-Fc protein in PBS overnight. Then the plate was blocked with 2% BSA in PBS with 0.05% Tween20 and incubation with antibody samples for 60 min at room temperature, and then washed twice in 1×TBST (Cell Signaling Technology, #9997) and followed by incubation with anti-human lgG HRP (Horseradish peroxidase) conjugate for 60 min at a room temperature. HRP activity was detected with tetra-methylbenzidine substrate (Cell Signaling Technology, #7004) and the reaction was stopped with stop solution (Cell Signaling Technology, #7002). The plate was read at 450 nm. […] Ab 21c has the highest binding affinity to rat/mouse FGFR2b, followed by human FGFR2b, and then cyno FGFR2b.
For orientation: ELISA stands for enzyme-linked immunosorbent assay.

In assay [1] the target is T2, recombinant human FGFR1b-Fc (human, UniProt P11362-19 22-376).
T2 construct: Bought from R&D Systems; also called hFGFR1b-Fc; not shown: human Fc
T2 sequence (looked up): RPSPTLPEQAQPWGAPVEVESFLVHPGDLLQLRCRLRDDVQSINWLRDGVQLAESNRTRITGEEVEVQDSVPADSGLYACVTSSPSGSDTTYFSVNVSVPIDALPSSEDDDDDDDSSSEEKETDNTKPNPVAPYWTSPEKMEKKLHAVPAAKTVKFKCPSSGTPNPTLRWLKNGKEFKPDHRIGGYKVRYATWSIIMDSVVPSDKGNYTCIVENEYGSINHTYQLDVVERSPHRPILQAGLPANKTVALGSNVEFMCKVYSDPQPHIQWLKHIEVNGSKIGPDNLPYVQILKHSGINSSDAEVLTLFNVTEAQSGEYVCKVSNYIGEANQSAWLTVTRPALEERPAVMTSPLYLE
Nature of the assay: SPR (Biacore T200), hFGFR1b-Fc amine-coupled on CM5 chip, antibody as analyte. The protocol:
(§2) The binding of antibodies to human FGFR2b or human FGFR1b antigen was determined by surface plasmon resonance (Biacore). Briefly, CM5 sensor chip (GE Healthcare Life Sciences) was firstly activated by a 4 min injection of 1:1 freshly mixture of 50 mM N-hydroxysuccinamide (NHS): 200 mM […]. Then hFGFR2b-Fc or hFGFR1b-Fc was immobilized to activated CM5 sensor chip using Amine Coupling Kit (GE Healthcare Life Sciences) and 1M ethanolamine as the blocking reagent. About 20-30 response units (RU, 1 RU represents the binding of 1 pg of protein per square mm) of antigen protein were captured.
(§3) The association constant, dissociation constant were calculated with Biacore T200 evaluation software (version 1.0). […] In addition, Ab 21c is distinguished from the antibody FPA144 in terms of FGFR1b binding.
On the technique in general: SPR reads the build-up and loss of mass on a sensor chip optically.

Assay [2] concerns the target T3, recombinant rat/mouse FGFR2b-Fc (rat).
T3 construct: also called rat FGFR2b fused with murine Fc
The experiment in a line: ELISA, plate coated with rat/mouse FGFR2b-Fc, anti-human IgG HRP. The protocol: as §1

The target in assay [3] is T2, recombinant human FGFR1b-Fc. The experiment in a line: SPR (Biacore), hFGFR1b-Fc immobilized on CM5 chip, antibody injected at 0-200 nM. As for the experimental part: as §2, §3
Assay [4] concerns the target T4, FGFR4-Fc (human, UniProt P22455 22-369).
T4 construct: Bought from R&D Systems; not shown: human Fc
T4 sequence (looked up): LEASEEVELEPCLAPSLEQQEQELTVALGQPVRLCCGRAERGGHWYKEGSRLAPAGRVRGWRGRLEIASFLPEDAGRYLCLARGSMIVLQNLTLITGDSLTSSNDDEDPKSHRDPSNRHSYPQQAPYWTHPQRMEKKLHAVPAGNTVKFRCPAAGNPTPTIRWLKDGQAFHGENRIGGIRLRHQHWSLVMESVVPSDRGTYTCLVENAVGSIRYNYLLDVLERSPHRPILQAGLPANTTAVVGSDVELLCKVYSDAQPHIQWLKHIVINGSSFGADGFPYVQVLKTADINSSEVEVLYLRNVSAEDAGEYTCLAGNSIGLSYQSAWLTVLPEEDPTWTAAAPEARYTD
Nature of the assay: ELISA, plate coated with HuFGFR4.

For assay [5], the target named is T5, FGFR3b-Fc (human, UniProt P22607-2 23-377).
T5 construct: Bought from R&D Systems; the IIIb form is an isoform of it; not shown: human Fc
T5 sequence (looked up): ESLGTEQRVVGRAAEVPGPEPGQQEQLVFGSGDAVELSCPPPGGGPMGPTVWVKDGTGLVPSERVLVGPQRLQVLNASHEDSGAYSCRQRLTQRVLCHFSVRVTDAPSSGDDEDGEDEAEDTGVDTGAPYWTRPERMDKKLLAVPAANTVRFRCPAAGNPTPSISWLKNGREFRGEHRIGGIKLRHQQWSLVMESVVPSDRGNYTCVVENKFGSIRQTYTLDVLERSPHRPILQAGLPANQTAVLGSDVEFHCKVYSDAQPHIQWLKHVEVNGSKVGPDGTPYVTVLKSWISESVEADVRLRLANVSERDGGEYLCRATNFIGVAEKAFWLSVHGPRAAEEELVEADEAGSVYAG
Nature of the assay: ELISA, plate coated with HuFGFR3b.

Assay [6] addresses T5, FGFR3b-Fc. Nature of the assay: ELISA on FGFR family Fc fusion proteins.
Assay [7] concerns the target T4, FGFR4-Fc. Nature of the assay: ELISA on FGFR family Fc fusion proteins.

Residue numbers refer to the chain shown, from its start. Numbers in names are those of the source.

B1: Ab 21c (antibody, V domains shown)
VH: EVQLHQSGTVLARPGASVKMSCKTSGYTFTNYWMHWIKQRPGQGLEWIGAIYPENGDINYNQKFKGKAKLTAVTSASTAYMDLSSLTNEDSAVYYCTSRGDYWGQGTTLTVSS
VL: QIVLTQSPAIMSASPGEKVTMTCSASSGLSYMSWYQQKPGSSPRLLIYDTSNLASGVPVRFSGSGSGTSYSLTISRMEAEDAATYYCQQWSSYPYTFGGGTKLEIK
notes: Chimeric antibody: mouse VH and VL fused to human heavy and light chain constant regions; also called chimeric Ab 21c
As to B1, the “EC50 (read off the curve)” value with cyno FGFR2b-Fc was ~0.6 nM. Also, in assay [1], the Kd turned out to be 3.69 nM. Besides, the concentration giving a half-maximal response (EC50 (read off the curve)) in assay [2] is ~0.2 nM. Besides, in assay [3], the koff worked out at 0.000235 s⁻¹ and the kon came to 63800 M⁻¹ s⁻¹.

B2: Ab 21 (antibody, V domains shown)
VH: B1 VH
VL: B1 VL
notes: Mouse monoclonal antibody from a hybridoma; also called mouse Ab 21
On to B2, for which the binding result with FGFR4-Fc [4] and with FGFR3b-Fc [5] was “no binding (tested: about 10^-7.3 M (about 5e-8 M))” each time.

B3: Ab hu21-21 (antibody, V domains shown)
VH: EVQLVQSGAEVKKPGASVKVSCKASGYTFTNYWMHWVRQAPGQGLEWMGAIYPENGDINYNQKFKGRVTLTRDTSISTAYMELSRLRSDDTAVYYCTSRGDYWGQGTTVTVSS
VL: AIQLTQSPSSLSASVGDRVTITCSASSGLSYMSWYQQKPGKAPKLLIYDTSNLASGVPSRFSGSGSGTDFTLTISSLQPEDFATYYCQQWSSYPYTFGQGTKLEIK
notes: Humanized antibody based on Ab 21
As to B3, the binding result with FGFR3b-Fc [6] and with FGFR4-Fc [7] was “no binding” in each case.

B4: Ab hu21-26 (antibody, human IgG1, V domains shown)
VH: B3 VH with G56R
VL: B3 VL
notes: Humanized antibody with human IgG1; The VH equals that of hu21-21 except for G56R; also called afhu21-26 (afucosylated version)
With B4, the binding result in the assay with FGFR3b-Fc [6] and in the assay with FGFR4-Fc [7] was “no binding” in each case.

(Values after patent US20230055566A1 (DIZAL JIANGSU PHARMACEUTICAL, published 2023).)
